Results taken from patent US20150219657A1.
Values belong to the binder of their own block, whether it stands above or below them. Square brackets hold non-standard residues; d marks the D form. Ends that are not written are not given here. S1 = acylated D-Pra whose alkyne is clicked through a 1,2,3-triazole to acylated azidolysine-PEG2-biotin; dPra = C#CC[C@@H](N)C(=O)O

Experiments:
[1] = target: Active Akt2 (with N terminal His6 tag) (human) (UniProt P31751); experiment: single-component ELISA, bi-L as detection agent (FIG. 23A, given there as EC50)
[2] = target: Active Akt2 (with N terminal His6 tag) (human) (UniProt P31751); experiment: single-component ELISA, mono-L as detection agent (FIG. 23A, given there as EC50)
[3] = target: Active Akt2 (with N terminal His6 tag) (human) (UniProt P31751); experiment: single component ELISA, N-tL as surface-localized capture agent (FIG. 23A)
[4] = target: Active Akt2 (with N terminal His6 tag) (human) (UniProt P31751); experiment: SPR, Biacore T100, biotinylated N-tL on SA chip, Akt2 protein as analyte, 10° C., 1:1 binding model
[5] = target: Active Akt2 (with N terminal His6 tag) (human) (UniProt P31751); experiment: summary sentence of Example 1; method not given

Sequence of Active Akt2 (with N terminal His6 tag) (human) (P31751 other isoform, or with tags, fused parts or gaps): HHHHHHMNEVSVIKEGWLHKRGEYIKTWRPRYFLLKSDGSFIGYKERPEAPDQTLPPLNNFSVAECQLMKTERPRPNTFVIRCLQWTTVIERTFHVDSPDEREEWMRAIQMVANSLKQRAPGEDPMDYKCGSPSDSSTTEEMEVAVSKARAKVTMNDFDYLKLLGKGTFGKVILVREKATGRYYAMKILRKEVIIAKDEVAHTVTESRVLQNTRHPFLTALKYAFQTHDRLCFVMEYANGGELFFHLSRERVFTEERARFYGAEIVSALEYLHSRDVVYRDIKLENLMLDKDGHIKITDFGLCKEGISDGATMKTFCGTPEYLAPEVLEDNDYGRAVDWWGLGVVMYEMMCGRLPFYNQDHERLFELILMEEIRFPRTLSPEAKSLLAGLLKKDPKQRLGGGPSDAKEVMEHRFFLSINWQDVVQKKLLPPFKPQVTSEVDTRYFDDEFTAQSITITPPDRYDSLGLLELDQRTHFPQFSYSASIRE

- affinity [1]: 1 µM
B1: bi-L (designed binder)
peptide 1: [dW][dK][dV][dK][dL]-NH2
peptide 2: [dH][dN]G[dY][dF][dPra]
modifications: also: arms joined via S3 linker (azide, PEG2-biotin) coupled to the wkvkl N-terminus, biotin-PEG2 label, triazole to a chain's N/C-terminus via S3 linker

- affinity [2]: 3 µM
Binder: S1-[dW][dK][dV][dK][dL]-NH2 (designed binder) [mono-L]

- EC50 [3]: 19 nM
- Kd [4]: 25 nM
- affinity [5]: 20 nM
B2: N-tL (designed binder)
peptide 1: [dW][dK][dV][dK][dL]
peptide 2: [dH][dN]G[dY][dF]
peptide 3: Ac-[dPra][dY][dY][dR][dF]G-NH2
modifications: triazole (positions not given here); not fully specified (N-terminus, bridges); also: C-terminal D-Pra clicked via triazole to L-azidolysine of S4, arm not given here, N-terminus coupled to S4 (azidolysine-PEG2-biotin)
